Data as given in paper PMC10540216, “Activity Guided Azide-methyllysine Photo-trapping for Substrate Profiling of Lysine Demethylases” (Journal of the American Chemical Society, 2023).

B1: PR40A_HUMAN (protein, UniProt O75400 1-957, looked up)
Pre-mRNA-processing factor 40 …: MRPGTGAERGGLMVSEMESHPPSQGPGDGERRLSGSSLCSGSWVSADGFLRRRPSMGHPGMHYAPMGMHPMGQRANMPPVPHGMMPQMMPPMGGPPMGQMPGMMSSVMPGMMMSHMSQASMQPALPPGVNSMDVAAGTASGAKSMWTEHKSPDGRTYYYNTETKQSTWEKPDDLKTPAEQLLSKCPWKEYKSDSGKPYYYNSQTKESRWAKPKELEDLEGYQNTIVAGSLITKSNLHAMIKAEESSKQEECTTTSTAPVPTTEIPTTMSTMAAAEAAAAVVAAAAAAAAAAAAANANASTSASNTVSGTVPVVPEPEVTSIVATVVDNENTVTISTEEQAQLTSTPAIQDQSVEVSSNTGEETSKQETVADFTPKKEEEESQPAKKTYTWNTKEEAKQAFKELLKEKRVPSNASWEQAMKMIINDPRYSALAKLSEKKQAFNAYKVQTEKEEKEEARSKYKEAKESFQRFLENHEKMTSTTRYKKAEQMFGEMEVWNAISERDRLEIYEDVLFFLSKKEKEQAKQLRKRNWEALKNILDNMANVTYSTTWSEAQQYLMDNPTFAEDEELQNMDKEDALICFEEHIRALEKEEEEEKQKSLLRERRRQRKNRESFQIFLDELHEHGQLHSMSSWMELYPTISSDIRFTNMLGQPGSTALDLFKFYVEDLKARYHDEKKIIKDILKDKGFVVEVNTTFEDFVAIISSTKRSTTLDAGNIKLAFNSLLEKAEAREREREKEEARKMKRKESAFKSMLKQAAPPIELDAVWEDIRERFVKEPAFEDITLESERKRIFKDFMHVLEHECQHHHSKNKKHSKKSKKHHRKRSRSRSGSDSDDDDSHSKKKRQRSESRSASEHSSSAESERSYKKSKKHKKKSKKRRHKSDSPESDAEREKDKKEKDRESEKDRTRQRSESKHKSPKKKTGKDSGNWDTSGSELSEGELEKRRRTLLEQLDDDQ
B2: CYFP1_HUMAN (protein, UniProt Q7L576 1-1253, looked up)
Cytoplasmic FMR1-interacting …: MAAQVTLEDALSNVDLLEELPLPDQQPCIEPPPSSLLYQPNFNTNFEDRNAFVTGIARYIEQATVHSSMNEMLEEGQEYAVMLYTWRSCSRAIPQVKCNEQPNRVEIYEKTVEVLEPEVTKLMNFMYFQRNAIERFCGEVRRLCHAERRKDFVSEAYLITLGKFINMFAVLDELKNMKCSVKNDHSAYKRAAQFLRKMADPQSIQESQNLSMFLANHNKITQSLQQQLEVISGYEELLADIVNLCVDYYENRMYLTPSEKHMLLKVMGFGLYLMDGSVSNIYKLDAKKRINLSKIDKYFKQLQVVPLFGDMQIELARYIKTSAHYEENKSRWTCTSSGSSPQYNICEQMIQIREDHMRFISELARYSNSEVVTGSGRQEAQKTDAEYRKLFDLALQGLQLLSQWSAHVMEVYSWKLVHPTDKYSNKDCPDSAEEYERATRYNYTSEEKFALVEVIAMIKGLQVLMGRMESVFNHAIRHTVYAALQDFSQVTLREPLRQAIKKKKNVIQSVLQAIRKTVCDWETGHEPFNDPALRGEKDPKSGFDIKVPRRAVGPSSTQLYMVRTMLESLIADKSGSKKTLRSSLEGPTILDIEKFHRESFFYTHLINFSETLQQCCDLSQLWFREFFLELTMGRRIQFPIEMSMPWILTDHILETKEASMMEYVLYSLDLYNDSAHYALTRFNKQFLYDEIEAEVNLCFDQFVYKLADQIFAYYKVMAGSLLLDKRLRSECKNQGATIHLPPSNRYETLLKQRHVQLLGRSIDLNRLITQRVSAAMYKSLELAIGRFESEDLTSIVELDGLLEINRMTHKLLSRYLTLDGFDAMFREANHNVSAPYGRITLHVFWELNYDFLPNYCYNGSTNRFVRTVLPFSQEFQRDKQPNAQPQYLHGSKALNLAYSSIYGSYRNFVGPPHFQVICRLLGYQGIAVVMEELLKVVKSLLQGTILQYVKTLMEVMPKICRLPRHEYGSPGILEFFHHQLKDIVEYAELKTVCFQNLREVGNAILFCLLIEQSLSLEEVCDLLHAAPFQNILPRVHVKEGERLDAKMKRLESKYAPLHLVPLIERLGTPQQIAIAREGDLLTKERLCCGLSMFEVILTRIRSFLDDPIWRGPLPSNGVMHVDECVEFHRLWSAMQFVYCIPVGTHEFTVEQCFGDGLHWAGCMIIVLLGQQRRFAVLDFCYHLLKVQKHDGKDEIIKNVPLKKMVERIRKFQILNDEIITILDKYLKSGDGEGTPVEHVRCFQPPIHQSLASS
B3: SRRT_HUMAN (protein, UniProt Q9BXP5 2-876, looked up)
Serrate RNA effector molecule …: GDSDDEYDRRRRDKFRRERSDYDRSRERDERRRGDDWNDREWDRGRERRSRGEYRDYDRNRRERFSPPRHELSPPQKRMRRDWDEHSSDPYHSGYEMPYAGGGGGPTYGPPQPWGHPDVHIMQHHVLPIQARLGSIAEIDLGVPPPVMKTFKEFLLSLDDSVDETEAVKRYNDYKLDFRRQQMQDFFLAHKDEEWFRSKYHPDEVGKRRQEARGALQNRLRVFLSLMETGWFDNLLLDIDKADAIVKMLDAAVIKMEGGTENDLRILEQEEEEEQAGKPGEPSKKEEGRAGAGLGDGERKTNDKDEKKEDGKQAENDSSNDDKTKKSEGDGDKEEKKEDSEKEAKKSSKKRNRKHSGDDSFDEGSVSESESESESGQAEEEKEEAEEALKEKEKPKEEEWEKPKDAAGLECKPRPLHKTCSLFMRNIAPNISRAEIISLCKRYPGFMRVALSEPQPERRFFRRGWVTFDRSVNIKEICWNLQNIRLRECELSPGVNRDLTRRVRNINGITQHKQIVRNDIKLAAKLIHTLDDRTQLWASEPGTPPLPTSLPSQNPILKNITDYLIEEVSAEEEELLGSSGGAPPEEPPKEGNPAEINVERDEKLIKVLDKLLLYLRIVHSLDYYNTCEYPNEDEMPNRCGIIHVRGPMPPNRISHGEVLEWQKTFEEKLTPLLSVRESLSEEEAQKMGRKDPEQEVEKFVTSNTQELGKDKWLCPLSGKKFKGPEFVRKHIFNKHAEKIEEVKKEVAFFNNFLTDAKRPALPEIKPAQPPGPAQILPPGLTPGLPYPHQTPQGLMPYGQPRPPILGYGAGAVRPAVPTGGPPYPHAPYGAGRGNYDAFRGQGGYPGKPRNRMVRGDPRAIVEYRDLDAPDDVDFF
B4: ROCK1_HUMAN (protein, UniProt Q13464 2-1354, looked up)
Rho-associated protein kinase …: STGDSFETRFEKMDNLLRDPKSEVNSDCLLDGLDALVYDLDFPALRKNKNIDNFLSRYKDTINKIRDLRMKAEDYEVVKVIGRGAFGEVQLVRHKSTRKVYAMKLLSKFEMIKRSDSAFFWEERDIMAFANSPWVVQLFYAFQDDRYLYMVMEYMPGGDLVNLMSNYDVPEKWARFYTAEVVLALDAIHSMGFIHRDVKPDNMLLDKSGHLKLADFGTCMKMNKEGMVRCDTAVGTPDYISPEVLKSQGGDGYYGRECDWWSVGVFLYEMLVGDTPFYADSLVGTYSKIMNHKNSLTFPDDNDISKEAKNLICAFLTDREVRLGRNGVEEIKRHLFFKNDQWAWETLRDTVAPVVPDLSSDIDTSNFDDLEEDKGEEETFPIPKAFVGNQLPFVGFTYYSNRRYLSSANPNDNRTSSNADKSLQESLQKTIYKLEEQLHNEMQLKDEMEQKCRTSNIKLDKIMKELDEEGNQRRNLESTVSQIEKEKMLLQHRINEYQRKAEQENEKRRNVENEVSTLKDQLEDLKKVSQNSQLANEKLSQLQKQLEEANDLLRTESDTAVRLRKSHTEMSKSISQLESLNRELQERNRILENSKSQTDKDYYQLQAILEAERRDRGHDSEMIGDLQARITSLQEEVKHLKHNLEKVEGERKEAQDMLNHSEKEKNNLEIDLNYKLKSLQQRLEQEVNEHKVTKARLTDKHQSIEEAKSVAMCEMEKKLKEEREAREKAENRVVQIEKQCSMLDVDLKQSQQKLEHLTGNKERMEDEVKNLTLQLEQESNKRLLLQNELKTQAFEADNLKGLEKQMKQEINTLLEAKRLLEFELAQLTKQYRGNEGQMRELQDQLEAEQYFSTLYKTQVKELKEEIEEKNRENLKKIQELQNEKETLATQLDLAETKAESEQLARGLLEEQYFELTQESKKAASRNRQEITDKDHTVSRLEEANSMLTKDIEILRRENEELTEKMKKAEEEYKLEKEEEISNLKAAFEKNINTERTLKTQAVNKLAEIMNRKDFKIDRKKANTQDLRKKEKENRKLQLELNQEREKFNQMVVKHQKELNDMQAQLVEECAHRNELQMQLASKESDIEQLRAKLLDLSDSTSVASFPSADETDGNLPESRIEGWLSVPNRGNIKRYGWKKQYVVVSSKKILFYNDEQDKEQSNPSMVLDIDKLFHVRPVTQGDVYRAETEEIPKIFQILYANEGECRKDVEMEPVQQAEKTNFQNHKGHEFIPTLYHFPANCDACAKPLWHVFKPPPALECRRCHVKCHRDHLDKKEDLICPCKVSYDVTSARDMLLLACSQDEQKKWVTHLVKKIPKNPPSGFVRASPRTLSTRSTANQSFRKVVKNTSGKTS

system: KDM4A-I71AzF; experiment: CASI: photo-crosslinking with HEK293T cell extracts, StrepTactin enrichment and LC-MS/MS proteomics; assay type: binding, human; details: sheet "Final results but with 0.01";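 note: lysates from HEK293T cells pretreated with a KDM4 inhibitor to raise proteome methylation, affinity-purified after ±UV, gel-resolved, trypsin-digested, with exclusive unique peptides per protein averaged per condition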

Going from B1 to B2, the “Fold change (+UV/-UV)” value rises from 0.5 to 0.6.

First: B3
Second: B4
The “Fold change (+UV/-UV)” value of the first is higher: 0.5385 for the first, 0 for the second.
